The record followed here is PMC12501420, “Small DUF1127 proteins regulate bacterial phosphate metabolism through protein–protein interactions with the sensor kinase PhoR” (microLife, 2025).

This assay concerns the target T1, Strep-PhoR, sensor kinase PhoR from E. coli, purified (E. coli, UniProt P08400 1-431).
T1 construct: sensor kinase PhoR of Escherichia coli; one of 'both Strep-PhoR proteins' of the methods; also called E. coli PhoR; source: E. coli BL21, purified (membranes solubilised with Triton X-100, Strep-Tactin)
T1 sequence (looked up): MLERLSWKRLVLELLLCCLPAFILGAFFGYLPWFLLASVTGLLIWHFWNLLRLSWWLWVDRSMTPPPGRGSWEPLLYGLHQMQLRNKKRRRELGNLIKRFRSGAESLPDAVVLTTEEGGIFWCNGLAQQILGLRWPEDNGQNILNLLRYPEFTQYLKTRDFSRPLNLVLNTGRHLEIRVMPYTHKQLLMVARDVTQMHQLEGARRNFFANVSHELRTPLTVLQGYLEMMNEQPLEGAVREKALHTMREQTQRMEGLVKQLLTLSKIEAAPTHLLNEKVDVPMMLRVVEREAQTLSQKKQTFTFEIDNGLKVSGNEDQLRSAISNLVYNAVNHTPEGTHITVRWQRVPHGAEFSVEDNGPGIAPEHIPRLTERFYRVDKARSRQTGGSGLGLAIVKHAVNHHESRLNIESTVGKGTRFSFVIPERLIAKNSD
Briefly: far-Western, overlay or dot blot; Far-Western dot blot: Strep-tagged bait proteins spotted on a nitrocellulose membrane, incubated with His-SUMO-tagged DUF1127 protein, detected with anti-His antibody; EveryBlot blocking buffer, PBST washes (for E. coli PhoR and YjiS, Fig. 8B, it is not told who was spotted). Particulars: both partners purified.

B1: YjiS from E. coli, purified (natural protein, UniProt P39390 1-54, looked up)
chain: MEFHENRAKAPFIGLVQLWQAVRRWRRQMQTRRVLQQMSDERLKDIGLRREDVE
notes: YjiS, the sole DUF1127 protein of Escherichia coli, a 54-amino acid protein; also called E. coli YjiS
In the case of B1, the binding result is “binds”.
